The record followed here is the DeepSol protein solubility set.

This series can be described thus: soluble on expression in E. coli; label from the status in PepcDB or PDB records.
For the sequence “MHRNYFKKKQNLIFSEKQQSVEKYGDDWVHHFHTANARETFGKKIFGIFFPRNLSIERTRETPTAKEGDLLHNGNY”, the “soluble on expression in E. coli” value is recorded as “not soluble”.

In the case of “SNAMKLTPNYYRDRVCLNVLAGSKDNARAIYQAAEGHVLVGVLSKNYPDVDSAVKDMREYAALIDNALSVGLGAGDPRQSVMVSQISQQVQPQHVNQVFTGVGASRALLGQHDTVVNGLISPTGKVGYVKISTGPLSSQQKDAIVPVTTAIAMLKDMGGSSVKFFPMNGLDSIDEYRFVAEACAATGFWLEPTGGIDLDNFEQIVQIALDAGVTKVIPHIYSSIIDSKTGNTRPEDVKTLLDIVKKIVQ”, the “soluble on expression in E. coli” value is listed as “soluble”.

For the sequence “MGSDKIHHHHHHMHHNTWKGIILQKQGLLKPQSVQQICQNLNGLQAQFQPYVHIGFRNRMTNEAFQNQDWQASLTRQWSLRRTVHAYLKSEIPLYIHEGRMASVDYLETVSWDGALPQVKKKFYQVILEALETGPMTREELKILCRAENIGVEEEKQVFNAWGGLLRYMVERGEIYQEYGVKRFHRLRDFQPLPKKEAELEIARRYFTGFGPVSLADARYYFKENKSTVLKWMEQLDLKTVEVAGEERFYLGELEEAELPDCLFVAGFDQLLLGYEKKANPFFNPKYIRNIYTLTGIVKPVVFYKGRFVATWKRDKGTILLDIFEDITQQEEKELEHYRQMFEKIL”, the “soluble on expression in E. coli” value is recorded as “not soluble”.

Take “MASDEGKLFVGGLSFDTNEQSLEQVFSKYGQISEVVVVKDRETQRSRGFGFVTFENIDDAKDAMMAMNGKSVDGRQIRVDQAGKSSDNR”: the “soluble on expression in E. coli” value was “soluble”.

Take “MSLKHLWFEKGAYASKAARQYLNDHFNPLAVKKTAVIRHAALGDQVIVRPFLVEARKFFPNAEITLVTVSNYLYGTPSDLADKTVIMKSRDDSKQLSLRQKWQDYNQLEAQDIIFDVAGTNRSYWMTLLTKAKLKVGFPYKPFLCGTLYNLAVFRSDFQPEVECMLDMLKILGHNPSYPLDFAYPDNRQICDHAAPYIVYFSGASQLRKILTKPEMRAVIEQTIQQQPNVKHVFLEGKNEFEKGEYLQDLADNGSLTIQPCLPLDDLVTFIAKATLVIAPDTGIRNVAISTHTPTVGIFYATVPFRYTPLYEAHTIVMNANGEKPSTEQITSAIDTTLKMRLAAAKNTQEQEGHHHHHH”: the “soluble on expression in E. coli” value was “soluble”.

For “SKFGKSLSNQIEQTLPEWQDKFLSYKELKKRLKLIGSKTADRPVKRLRLDEFSVGISKEEINFIQLLEDELEKFNNFFVEKEEEYIIRLKEFRDRIAKAKDSMEKMIKIRKEIVDFHGEMVLLENYSALNYTGLVKILKKYDKRTGDLMRLPFIQKVLQQPFYTTDLLFKLVKESEAMLDQIFPANETESEIIQAELSEHKFMESLHMKSTIAALRVLKEIRSGSSTVSVFSLPPLQLNGLDETWKKIPLLEQEAK”, the “soluble on expression in E. coli” value is reported as “soluble”.

As for “MFPEQQKEEFVSVWVRDPRIQKEDFWHSYIDYEICIHTNSMCFTMKTSCVRRRYREFVWLRQRLQSNALLVQLPELPSKNLFFNMNNRQHVDQRRQGLEDFLRKVLQNALLLSDSSLHLFLQSHLNSEDIEACVSGQTKYSVEEAIHKFALMNRRFPEEEEEGKKDADVEYDSESSSSGLGHSSDDSSSHGCKTSPALQES”, the “soluble on expression in E. coli” value is reported as “soluble”.

For “MKFLNQHELTKLLALLDLDHGLDWDYFLLLIAKTGLRFGEALGVTPMDFDMAKLTLTINKTWDYKSATGSFAETKNTASVRKVPLDWQVAMQFAAQIKSLPQDKPIFVTDGQRVYNETANDILERKCKRASIPVISIHGLRHTHASLLLYAGVSVGSVARRLGHANMSTTQKTYLHILEHHHHHH”, the “soluble on expression in E. coli” value is “soluble”.

For “MAHHHHHHMYVVGPMVDQSELPFRMLCRRYGATLAYSPMLHARSFAQSAQYRARYFSTTPHRAEPAMTATVSGEGEAAEDAGRTSDGKETDHPLFVQFCGNDADTLLAAARHVEDDCEAVDVNLGCPQGIARRGHYGSFLMEDWDRVHNILHCLAVELRVPVTAKMRVFDDDALTLKYAEMLRDTGIAVLCVHGRTRHNKRGLADMEKIRRVREHLRGSIPVIGNGNVLTFEDVRRNMSVTMTDGYMCAEPLLWDPRLFAAPLHPVRNGRCFAECCEARLDAIRTAQEYLQLVQRYPVDLAFVKAHLFKMLFHSYEMHPVMHGWLTNFSCNGRGGNNNNNAGSDVNGEVEDGDIDDGRSPDGASESGSGNANKAESNVKQAAGNLDFFAFAMDALGEHLRQLYAAEVSCGVEGPQPKRAHEREKGVNDDTSSSAKRKVETSHDAFAEDDVFGIDFDLNKK”, the “soluble on expression in E. coli” value was “soluble”.

For “MAHHHHHHMRGTPLREGHHSPTQSVRRFFSDYQHVQEEKVNLPRLKLRGLPFDASEEEIKTFFKNFQLAKVGYPIHIIRGVKNKPTGQAHVYFDDEEEARKACETLNRKFLRNRYIEIYTDYIFNHNLTLVKEHVTTLMRDRYRKDNQ”, the “soluble on expression in E. coli” value was “not soluble”.

As to “MIKFNIRGENVEVTDAIRAYVEDKIGKLDKYFNDGHEVTAYVNLKVYSEKRAKVEVTLPAKNVTLRAEDTSQDMYSSIDFVEEKLERQIRKYKTRMNRKPRNAVPTGQAFGDEFAPLEKADEVAEDHVDIVRTKHVALKPMDAEEAVLQMDMLGHDFYVFTDADSNGTHVVYRRTDGRYGLIETELEHHHHHH”, the “soluble on expression in E. coli” value is given as “soluble”.

With “MANFNVPKLGVFPVAAVFDIDNVPEDSSATGSRWLPSIYQGGNYWGGGPQALHAQVSNFDSSNRLPYNPRTENNPAGNCAFAFNPFGQYISNISSAQSVHRRIYGIDLNDEPLFSPNAASITNGGNPTMSQDTGYHNIGPINTAYKAEIFRPVNPLPMSDTAPDPETLEPGQTEPLIKSDGVYSNSGIASFIFDRPVTEPNPNWPPLPPPVIPIIYPTPALGIGAAAAYGFGYQVTVYRWEEIPVEFIADPETCPAQPTTDKVIIRTTDLNPEGSPCAYEAGIILVRQTSNPMNAVAGRLVPYVEDIAVDIFLTGKFFTLNPPLRITNNYFADDEVKENTVTIGNYTTTLSSAYYAVYKTDGYGGATCFIASGGAGISALVQLQDNSVLDVLYYSLPLSLGGSKAAIDEWVANNCGLFPMSGGLDKTTLLEIPRRQLEAINPQDGPGQYDLFILDDSGAYASFSSFIGYPEAAYYVAGAATFMDVENPDEIIFILRNGAGWYACEIGDALKIADDEFDSVDYFAYRGGVMFIGSARYTEGGDPLPIKYRAIIPGLPRGRLPRVVLEYQAVGMSFIPCQTHCLGKGGIISKV”, the “soluble on expression in E. coli” value was “not soluble”.

“MSLRKFSLIMATYGRKDEVGCFLESLMNSNYPMDKVEVIIVDQNKEIDLEPIISKYKEKIKVVHIKSNERGLALNRNKGLEIATGDIIAFPDDDCEYLVDTLNIVNNYFENEHCDLLMGRIVERNGEDSLREWPKEKIEINKNNFYTKCSSVTMFLDSKKCFVKFNDQLGAGKYFGACEDADLIYKNCKKGLKIIYNPELQIYHPHYDSNSNMDDKKIYSYGLGFGAMVKSNFDFSMLILFIKAEGYHFLKSLIYLITFKTTKSKRSWLAFKSRIKGFFEYKNEGHHHHHH”: the “soluble on expression in E. coli” value was “soluble”.

Regarding “NGMDEEQRQKRRRIEVALIEYRETLEEQGMKNPEEIERKVEINRKRLEVDYGLS”, the “soluble on expression in E. coli” value is reported as “soluble”.

As for “MIPRILGALLLCLACAAQAGVYTYIDAEGNRVYTDQPPSGRKAQRVELAPGNSVAPPGIRYRPPAAPLEVKPPAYQLLRILFPEPDATLRANSGDVIVTVTSEPALLPGHRYRLLLDGKPAGVPGRSPVFPLKNLDRGTHQVAVEIIDGDGMTVESTPSQPFHLHRVSIAGQPLPEVDTPLVSAIEPSER”, the “soluble on expression in E. coli” value was “not soluble”.

Take “MGSDKIHHHHHHMRSLTNAEIAHNRLLNSGLLQSKFSSAEDATRALFGIQSQYQQFGEISLFNRVPNLTKENLQMAYDDKGIIKIWGQRMTIHMYTPDDWFYVHDVYANKNNWLRKHADSLGRDLDEILVQMEELLLREDKVSKESFAALLGNEAKELMTWGGVFIQGSLDGKLFCVPESPKTKFYSHRNQIDSEREDAWITNKRSKTGLETMIDRYFSAFGPATIQDFKHWSGLRNSDYIETLEKLLENYICYIGEDGKNYYSKAKTQENVEMGSPLLLGKFDPLFVSYAKKNWLASEKETSLIWRTAGQIEAVLIINAQFFGTWRYKISGDKIVFQFYLSKKLTKKGQKLVEKEAIKLAEFLLKNYQGSIFEQI”: the “soluble on expression in E. coli” value is recorded as “not soluble”.

With “MGGEGPGSDDIVKKMAQLMMQGAVMLDKTCPADGLPLFKLKTGDVVCPVHGKVVIVASDEEARDVEVEEIIREVRYRAARNVMKGLEEDNVDTVSKWLGVLETAERILAIRRGSRQGQGSVRGEGRESK”, the “soluble on expression in E. coli” value was “not soluble”.

Turning to “MCLNRVNEWVLEFNSRTKKLLIDLNKRLPGAKFSFADTYPAVLDLINNPTHYGFKIANTSCCNVDTSVGGLCLPNSKMCKNRQDFVFWDAFHPSDSANQILADHLFSSLLSSSSPSPAPKPRQ”, the “soluble on expression in E. coli” value is listed as “not soluble”.

On to “MAKRPTETERCIESLIAIFQKHAGRDGNNTKISKTEFLIFMNTELAAFTQNQKDPGVLDRMMKKLDLDSDGQLDFQEFLNLIGGLAIACHDSFIKSTQK”, for which the “soluble on expression in E. coli” value is “soluble”.

As to “MFVAEHEVEIRYAETDQMGVVYHSNYLVWLELGRTKLIQDLGFSYVEMEKEGIISPVLDLQISYRKAMRYGEKASVKTWVDTVSPLRVVYGYEIYNGDGELCITASTTNICAKKEGFRPVSFKKLYPEWYAKYEEIKKK”, the “soluble on expression in E. coli” value was “not soluble”.

As to “MKTVRIETFGCKVNQYESEYMAEQLEKAGYVVLPDGNAAYYIVNSCAVTKEVEKKVKRLIKSIRNRNKNAKIILTGCFAQLSPDEAKNLPVDMVLGIDEKKHIVDHINSLNGKQQVVVSEPGRPVYEKVKGSFEDRTRSYIKVEDGCDNTCTYCAIRLARGTRIRSKPLEIFKEEFAEMVMKGYKEIVITGVNLGKYGKDMGSSLAELLKVIEKVPGDYRVRLSSINVEDVNDEIVKAFKRNPRLCPHLHISVQSGSDDVLKRMGRKYKISDFMRVVDKLRSIDPDFSITTDIIVGFPGETDADFQRTLELVEKVEFSRVHIFRFSPRPGTPASRMEGGVPESKKKERLDVLKEKAKDVSIRYRKRIIGKERKVLAEWYVMKGVLSGYDEYYVKHEFVGNRVGEFHSVRVKSLSEEGVISCRADMVEGKVPARGLEHHHHHH”, the “soluble on expression in E. coli” value is “soluble”.

With “MEKATKRNDEECEVQLNIKRNSKHSAWTGELFKIECPVKYCVHRPNVTWCKHNGTIWVPLEVGPQLYTSWEENRSVPVFVLHFKPIHLSDNGSYSCSTNFNSQVINSHSVTIHVRERSQNSS”, the “soluble on expression in E. coli” value is listed as “soluble”.

Turning to “MVSMNMFEEVEVEAYVYPTEDIEKVKKAMLNLVPGLKFEAFDKGEYMILVGRTRDKRALQRLYELFRGQQILDTARMMLEEGYFGEEIIIKVHKQVAYVGKVNFNEESPLGPITIIIRTKEPQKLMKWLAPRTKDGVPIEAAALEHHHHHH”, the “soluble on expression in E. coli” value was “not soluble”.

In the case of “MGSDKIHHHHHHMAVIYYDKDADLNLIKDKKIAIIGYGSQGHAHALNLKDSGLNVVVGLREGSKSWKKAEEQGLTVKTIEEAAKEADIIMILIPDEHQPEIYKKYIEKHLTEGKMLMFAHGFNIHYHQIIPPKNVDVTMIAPKSPGHIVRREYVEGRGVPALVAVYQDYTGKAKDIALAYAKGIGVTRAGVIETTFKEETETDLFGEQAVLCGGVTALIKAGFETLVDAGYQPEIAYFECLNELKLIVDLIYEGGLSFMRYSVSNTAEYGDYISQEKIVTKEVRENMKQMLKDIQTGKFAKDWILENQAGRPYFYTMRKKESEHLIEKVGKELRKMMPWLKERNVDEE”, the “soluble on expression in E. coli” value is “not soluble”.

For the sequence “MKRLRSKMTTEELAECLGVARQTVNRWIREQHWKTEKFPGVKGGRARLIHIDASVREFILNIPAFRKLPAFYQAEEAFAEYANAAHSHAYRQIIDAVENMSAQEQEKLALFLSREGIRGFLTRLGINEAD”, the “soluble on expression in E. coli” value is recorded as “not soluble”.
